Assay results from PMC10294659, “Cryo-EM Structures of the Klebsiella pneumoniae AcrB Multidrug Efflux Pump” (mBio, 2023).

Columns and labels:
[1] = biological target: Klebsiella pneumoniae AcrB multidrug efflux pump (Klebsiella pneumoniae) (UniProt W9B4M6); assay: cryo-EM structure; single-particle cryo-EM of 10 uM KpAcrB in lipidic nanodiscs (MSP 1E3D1, E. coli total extract lipid; 20 mM Tris-HCl pH 7.5, 100 mM NaCl); apo, and after 2 h with 500 uM erythromycin
[2] = biological target: T1, KpAcrB (K. pneumoniae AcrB multidrug efflux pump) (Klebsiella pneumoniae, UniProt W9B4M6); assay: microscale thermophoresis (label-free); cryo-EM structure of the complex also solved; assay type: binding
T1 construct: full-length, 1,048 residues (model 1-1033), N-terminal 6xHis tag, pET15b, expressed in E. coli BL21(DE3) delta-acrB; homotrimer; in DDM for MST, in MSP1E3D1 lipid nanodiscs for cryo-EM

Compound | stoichiometry N [1] | Kd [2] [µM]
Klebsiella pneumoniae AcrB multidrug efflux pump (from UniProt W9B4M6 1-1048) (natural protein) | 3 | 
CC[C@H]1OC(=O)[C@H](C)[C@@H](O[C@H]2C[C@@](C)(OC)[C@@H](O)[C@H](C)O2)[C@H](C)[C@@H](O[C@@H]2O[C@H](C)C[C@H](N(C)C)[C@H]2O)[C@](C)(O)C[C@@H](C)C(=O)[C@H](C)[C@@H](O)[C@]1(C)O [erythromycin] |  | 14.4 ± 2.6
